Measurements: patent US20080008648A1

Target: human IL13 (human) (UniProt P35225)
Assay: cell-based or functional assay

Sequence of human IL13 (human) (P35225 35-146 limits assumed): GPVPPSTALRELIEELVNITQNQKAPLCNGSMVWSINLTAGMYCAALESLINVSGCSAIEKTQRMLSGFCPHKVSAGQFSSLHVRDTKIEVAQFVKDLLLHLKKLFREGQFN

In the case of “anti-IL13 mAb JES10-5A2 (BD Biosciences-Pharmingen) (antibody)”, the inhibition of IL13-suppressed CD14 expression on human monocytes (complete inhibition) is reported as > 80 nM.
